Assay results published in the nanobody polyreactivity screen of Harvey et al. (2022).

Assay: yeast display, Sf9 membrane polyspecificity reagent, FACS + sequencing; frameworks hold sequencing errors
How it was run: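 Galactose-induced (36–48 hours) yeast carrying a synthetic nanobody display library were exposed to 10% biotinylated, detergent-solubilized Sf9 membrane reagent at 4 °C for 1 hour. FACS followed streptavidin microbead enrichment, using low and high (top ~1%) gates for expression (anti-HA) and reagent binding (streptavidin). Colony PCR, MiSeq 2 × 250 sequencing and CDR-length filtering followed. Labels for polyreactivity reflect the gate of origin.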

| Sequence | polyreactivity (PSR sort gate) |
| --- | --- |
| QVQLVESGGGLVQAGGSLRLSCAASGSISGYYAMGWYRQAPGKERELVASIRYTGARTYYADSVKGRFTISRDNAKNTVYLQMNSLKPEDTAVYYCAADFRSVFSKYSYYLYFDFDYWGQGTQVTVSS | low polyreactivity |
| QVQHVESGGGLVQAGGSLRLSCAASGRIFPRYAMGWYGQTPGKERELVADISRSGGSTYYADSVKGRFTISRDNAKNSVYLQMNSLKPEDTAVYYCAASQYRRVKQGNYWGQGTQVTVSS | high polyreactivity |
| QVQLVESGGGLVQAGGSLRLSCAASGRTFNSYAMGWYRPAPGKERELVATISSRGGNTFYADSVKGRFTISRDYAKNTVYLQMNRLKPEDTAVYYCAKPGYLRPSRYDYWGQGTQVTVSS | high polyreactivity |
| QVQLEESGGGLVQAGGSLRLSCAASGFIFSSNAMGWYRQAPGKESQLVARITRSDGSTYYADSVKGRFTISRDSAKNTVYLQMNSLKPEDTAFDYCAKGRDATHYEYYLYSMDYWGQGTQVTVSS | low polyreactivity |
| QVQLVESGGGLLQAGGSLRLSCAASGSTFVYYAMGWYRQAPGKERELVASINSGGSTYYADSVKGRFRISRDNEKNTVYLQMNSLKPEDTAVYYCAATSIPPSVHLQDPTYDYWGQGTQVTVSS | low polyreactivity |
| QVQLVESGGGLVQAGGSLRLSCAASGFTFDSYAMGWYRQAPGNDRELVAAISYRGGSTYYADSVKGRFSISRDNAKNTVYLQMNSLKPEDTAVFYCAARSPSAAYGSYGVYSWGQGTQVTVSS | high polyreactivity |
| QVQLVESGGGLVQAGGSLRLSCAASGITFYYYAMGWYRQAPGKERELVASISQSGGSTYYAASVKGRFSISRDNAKNTVYLQMNSLKPEDTAVYYCAADPGRYYPMYYWGQGTQVTVSS | low polyreactivity |
| QVQLVESGGGLVQAGGSLRLSCAASGRIFGYYAMGWYRQAPGKESELVARISSSGGSTYYADSVKGRFTISRDNAKNTVYLQMNSLKPEDTAVYYCNTASNRSPGWRAEFDYWGQGTQVTVSS | low polyreactivity |
| QVQLVESGGGLVQAGGSLRLTCAASGIIFRFYGMGWYRQEPGKEREFVAAISGGGGSTYYADSVKGRFTISRDNAKKTVYLQMNSLKPEDTAVYYCARYTYRSAFEYWGQGTQVTVSS | high polyreactivity |
| QVQLVESGGGLVQAGGSLRLSCAASGIIFPRYAMGWYRQEPGKERELVAAITRRGGRTYYADSVKGRFTISRDNAKNTVYLQMNSLKPEDTAVYYCAARKVNRGSGGYDSWGQGTQVTVSS | high polyreactivity |
| QVQLVESGGGLVQAGGSLRLSCAASGSIFWGNDMGWYRQAPGKERELVAGIRNSGTSTYYADSVKGRFTISRDNAKNTVYVQMNSLKPEDTAVYDCAAADGRQYSRYYWRGHDYWGQGTQVTVSS | low polyreactivity |
| QVQLVESGGGLVQAGGSLRLSCAASGSTFSGYAMGWYRQAPGKERELVAAITSGGSTNYADSVKGRFTISRDNAKNTVYLQMNSLKPEDTAVYYCAADSREVSTTAYYYWGQGTQVTVSS | low polyreactivity |
| QVQLVESGGGLVQAGGSLRLSCAASGITFIWYAMGWYRQAPGKERELVAAISTSGGSTYYADSVKGRFTISRDNAKNTVYLQMNSLKPEDTAVYYCAAVSGGVSRSYDRYYWGQGTQVTVSS | high polyreactivity |
| QVQLVESGGGLVQAGGSLRLSCAASGSIFDIYCMGWYRHAPGKERELVASISGGAGSTNYADSVKGRFTISRDNAKNTVYLQMNSLKPEDTAVYYCAAEVYVPDYFQHKFDVEYEYWGQGTQVTVSS | low polyreactivity |
| QVQLVESGGGLVQAGGSLRLSCAASGRTLEDYVMGWYRQAPGKERELVAAISWSGVSTYYADSVKGRFTISRDNEKNTVYLQMNSLKPEDTAVYYCAKDSTADELTGFDYWGQGTQVNVSS | low polyreactivity |
| QVQLVESGGGLVQAGGSLRLSCAASGRTFMRNAMGLYRQAPGKERELVAAISRSGGSTYYADSVKGRFTISRDNAKNTVYLQMNSLKPEDTAVYYCAADDYGGYYYWGQGTQVTVSS | high polyreactivity |
| QVQLVESGGGLVQAGGSLRLSCAASGFTFKYYTMGWYRQAPGKERELVAAISSAASTNYADSVKGRFTISRDNAKNTVYLQMNSLKPEDTAVYYCNADITGWARIRYQWIRQYDYWGQGTQVTVSS | high polyreactivity |
| QVQLVESGGGLVEAGGSLRLSCAASGSTSRHNTMGWYRQAPGKERELVAAISGGGTTYYADSVKGRFTISRDNAKNTVYLQMNRLNPEDTAVDDCAAAFWGDYASSYRAGLDYWGQGTQETVSS | low polyreactivity |
| QVQLVESGGGLVQAGGSLRLSCAASGLIFLYNAMGWYRQAPGKERELVAAISRSGGSTYYADSVKGRFTISRDNAKNTVYLQMNSLKPEDTAVYYCNARWPLGVSRGGMGYWGQGTQVTVSS | high polyreactivity |
| QVQLVESGGGVVQAGGSLRLSCAASGMGWYRQAPGKERELVATITTGGTYADSVKGRFTISRDNAKNTVYLQMNSLKPEDTAVYYCAADGLGSVYYLRYNYWGQGTQVTVSS | low polyreactivity |
| QVQLVESVGGLVQAGGSLRLSCGASGSIFVANAMGWYIQAPGKEREFVAAITGSGGSTYYADSVKGRFTISRDNAKNTVYLQMNSLKPEDTAVYYCTGDYTVKFGYWGQGTQVTVSS | low polyreactivity |
| QVQLVESGGGLVQAGGSLRLSCAASGSTFRYNARGWYRQAPGKERELVADIRRSGGSTYYADSVKGRFTISRDNAKNTVYLQMNSLKPEDTAVYYCNAAVSRLYYHSYSYRSYYYWGQGTQVTVSS | high polyreactivity |

| Sequence | polyreactivity (PSR sort gate) |
| --- | --- |
| QVQLVESGGGLVQAGGSLRLSCADSGRTFVSNAMGWYRQAPGKERELVAAISGSGGITYYADSVKGRFTISRDNAKNTVYLQMNSLKPEDTAVYYCNADSSGWFPFDYWGQGTQVTVSS | low polyreactivity |
| QVQLVESGVGLVQAGGSLRLSCAASGFIFYYYAMGWYRQAPGKERELVAAISTDGGSTYYADSVKGRFTISRDNAKNTVYLQMNSLKPEDTAVYYCNAPYYGWGYWPLEYIRYEYWGQGTQVTVST | low polyreactivity |
| QVQLVESGGGLVQAVGSLRLSCAASGRIFYSYAMGWYRQAPGKERELVAAITRGGSTSYADSVKGRFTISRDNAKNTVYLQMNSLKPDDTAVYYCATRQFYSYWKYYYWGQGTQVTVSS | high polyreactivity |
| QVQLVESGGGLVQAGGSLRLSCAASGIIFLVNAMGWYRQAPGKESELVATITSGGSTYADSVKGRFTISRDNAKYTVYLQMNSLKPEDTAVYYCAAVRRRRNSYGYWGQGTQVTVSS | high polyreactivity |
| QVQLVESGGGLVQAGGSLRLSSAASGSILWQYAMGWYRQAPGTERELVAAMTYSGGSTHYADSVKGRFTISRDNAKNTVYLQMNSLKPEDTAVYYCAAGYWYRYAALRYDHWGQGTQVTVSS | low polyreactivity |
| QVQLVESGGGLVQAGGSLRLSCAASGSILSDNAMGWYRQAPGKERELVASIRSGDITKYADSVKGRFTFSRDNAKNTVYLQMNSLKPEDTAVYYCASAGRVLYTRKYYGWRYLNDYWGQGTQVTVSS | low polyreactivity |
| QVQLVESGGGLVQAGGILRLSCAASGFTFTRNAKGRYRQAPGKERELVAAISSGGRTYYADSVKGRFTISRDNAKNTVYLQMNSLKPEDTAVYYCPTTIWGPVEGYDYWGQGTQETVSS | high polyreactivity |
| QVQLQESGGGLVQAGGSLRLSCAASGNIVDADIMGWYRQAPGKEREIVASITDGGSTNYADSLKGRFTISRDNAKNTVYQQMNSLIPEDTAVYYCAAIAYPDIPPYFDYDSDYFDWGQGTQETVSS | high polyreactivity |
| QVQLVESGGALVQAGGSLRLSCAASGSIFRYYAMGWYRQAPVKERELVAAIDFSGGRTYYADSVKGRFTISRDNAKNTVYLQMNRLKPEDTAVYDCARKYTTAYGSTFYYWGQGTQVSVSS | high polyreactivity |
| QVQLVESGGGLVQAGGSLRLSCAASGIIFVYYAMGWYRQAPGKERELVAAISTRGGSTYYADSVKGRFTISRDNAKNTVYLQMNSLKPEDTAVYYCAATYVYRYVPRIPSEAYDYWGQGTQVTVSS | high polyreactivity |
| QVQLVESGGGLVQAGGSLRLICAASGRIFDGYAMGWYRQAPGKERELVAAISSDGGSTNYADSVKGRFTISRDNAKNTVYLQMNSLKPEDTAVYYCAESRLGEYLGYDYWGQGTQVTVSS | low polyreactivity |
| QVQLVESGGGLVQAGGSLRLSCAASGRIFTHNAMGWYRQAPGKERELVAAISYSGVSTYYADSVKGRFTISRDNAKNTVYLHMNSLKPEDTAVYYCNALIQSWRARIRRYYWGQGTQVTVSS | low polyreactivity |
| QVQLVESGGGLVQAGGSLRLSCAASGIIFWYYAMGWYRQAPGKDRELVARITTAGITNYADSVKGRFTISRDNAKNTVYLQMNSLKPEDTAVYYCAADTYWHYRGPGYDYWGQGTQVTVAS | low polyreactivity |
| QVQLVESGGGLVQAGGSLRLSCAASGSTFPGYAMGWYRQAPGKERELVAAISWSGGNTYYADSVKGRFTISRDNAKNTVYLQMNSLKPEDTAVYYCNAAGRRYKFDYWGQGTQVSVSS | high polyreactivity |
| QVQLVESGGGLVQAGGSLRLSCAASGSIFRPYAMGWYRQAPGKERELVAAISYRGGSTYYADSVKGRFTISRDNAKNTVYLQMNSLKPEDTAVYYCAADSREEGDYWGQGTQVTVSS | low polyreactivity |
| QVQLVESGGCLVQAGGSLRLSCAASGSIFLYNAMGWYRQAPGKERELVAAIPYSGGRTYYADSVKGRFTISRDNAKNTVSFQMNSLKPEDTAFYYCAVKSFSGHGDYWGQGTQVTVSS | low polyreactivity |
| QVQLVESGGGLVQAGGSLRLSCAASGNTFYPNAMGWYRQAPGKERELVAAITTSGGTTYYADSVKGRFTISRDNAKNTVYLQMNSLKPEDTAVYYCAAYWSRDKYDYWGQGTQVTVSS | low polyreactivity |
| QFQLVESGGGLDQAGGSLRLSCAASGLTFYGYAMGWYRQAPGKERELVAAITWGGGSTYYADSVKGRFTISRDKAKNTVYLQMNSLKPEETEVYYCNADYYLPAIRYDYWGQGTKVTVSS | low polyreactivity |
| QVQLVESGRGLVQAGGSLRLSCAASGSTFDGYAMGWYRQAPGKVRELVAAINWGGGSTRYADSVKGRFTISRDHAKNTVYLQMNSLKPEDTPVYYCAAYRYRVWYRGYDYWGQGTQVTVSS | high polyreactivity |
| QVQLVESGGGLFHAGGSLRLSCAASGSTFGGNDMGWSIQAPGKERELVASISDGGRTNYADSVKGRFTISRDNAKNTVYLQMNSLKPEDTAVYYCAADYAPVAFDYWGQGTQVTVSS | low polyreactivity |
| QVQLVESGGGLVQAGGSLRLSCAASGSILLRNTMGWYRQAPGKERELVAAISWRGGSTYYADSVKGRFTISRDNAKNTVYLQMNSLKPEDTAVYYCAARWVASHKGGYWGQGTQVTVSS | high polyreactivity |
